The experiment deals with wild-type human ADORA2A adenosine A2A receptor (construct terminated at residue 316, N154Q, C-terminal 8x His and Protein C tags) (human) (UniProt P29274).
Chain of UniProt P29274 (P29274 1-316 N154Q): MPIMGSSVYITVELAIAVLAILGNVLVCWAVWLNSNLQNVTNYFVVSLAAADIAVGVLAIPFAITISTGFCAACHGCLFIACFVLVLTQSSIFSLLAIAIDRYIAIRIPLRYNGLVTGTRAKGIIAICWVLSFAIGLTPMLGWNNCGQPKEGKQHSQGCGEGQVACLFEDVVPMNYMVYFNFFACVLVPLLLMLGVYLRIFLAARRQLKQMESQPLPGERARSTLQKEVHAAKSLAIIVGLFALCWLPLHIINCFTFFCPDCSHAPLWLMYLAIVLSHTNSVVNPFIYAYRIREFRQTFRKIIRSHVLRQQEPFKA

In turn, Gs heterotrimer (complex) displayed a [35S]GTPγS binding to perdeuterated purified A2AR reconstituted with purified Gs heterotrimer in phospholipid vesicles; reduction of basal activity by inverse agonist ZM241385 of 50% and a [35S]GTPγS binding to perdeuterated purified A2AR reconstituted with purified Gs heterotrimer in phospholipid vesicles; stimulation by saturating full agonist NECA of 8 fold.

Source of the values: publication PMC5650471.
